# Assay: protease stability score; higher = more stable; yeast display proteolysis, trypsin and chymotrypsin;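 note: relative to predicted unfolded state with 0 unfolded-like and 1 meaning tenfold more protease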
row,Sequence,protease stability score
1,SEEEKLSRELSKLILHYLHTGDWDQITELADPNVRIHDTINGRDNDNHGWEMLIALMEQLGVDVRRFHHIRVIGDKVHMEVELNFNGRTVHAEWTFKVVDGRMKSIEIRTK,1.34
2,SEEEKLSRELVNEFLRLWKTGDWRRFHELADPDAKQQYNVNGQNFDYHGRDEVTDAVREFLNRLGVDHFHVHDSRIIGEKKEIDGHLNFNGRTHHIEMVVVVINGRVHKIEFHVR,0.28
3,SEEEKLTREFAEMWRHTIETGDEEEMWRMADPNVRVDFDGKELHGRELFQEHFRKLGVDHFIVRRIHVQGEKLRIDGSHIYNGQHIHTELISQKVNGRWIIDQVKVH,1.36
4,SEEEKLWHEIIRRILHSWDTGDEDTLNELIDPNARLIIDVNGRIIRRHGWEEMHEFIEKVRRDLGADHVHFDHINIQGNKVETDVTIEIGDKKMRSHLIIIVIDGQIHELKIIHR,1.83
5,SEEEKMVEYAIRLIDSLIRTGDERVLMSLLDPHAKMDVNGKDLIGREFLKHWTHQYKNVKLRDIKVKDAEVQGDKIRIHVELEIEFNGRRDSRDETWYIDKFDGRWLVEEIRVK,1.15
6,SEEEKNARDFLRLIFNHVHTGDFRHMSKLFDPHVRIQIGDKVFHGREEAERVWLEWRVEDIKIRHIDIQGDKLIVDTEVHGNFNGRNRNIETEIHVRKVDGKWILESMSVI,2.54
7,SEEEKRADEFNRRWVHKMQTGDEESLHELIDPNAKLHFEGHDEVGMQRVSHTIVKFFLEIRVHYIHITDARVYDGRLELDTRVDGEFNGKRDTLKIELYVLKVNGVWLLKELRVS,1
8,SEEEKRAEEWVKLMIHAHLTGDFHLLERFADPHTRVDFNGVENIGMEEVSRWIKEWRRRIDHTEIRLHRIRLQGDKVHVKTELILEYDGRTEFIDSRINLIVINGVLKELRVTLH,1.38
9,SEEEKRAKKLIEIFMESIETGDWKEIHRMMDPTTRLEQGDYEHHGRDEIRELWLQELLDLGVERIRVKVHHVDVIDGKAHVDVTIHFNGVTQRRHYVIVKIDGRWMIKLVIIR,1.81
10,SEEEKRARIASELLFEYLHTGDETLWEELMDPDVRLEINGRLFHGMDSFRHALEIWLKEIRLRDMRVRELHVIGDKIHVNSEDEVEVNGRVVNYESRLDMEKIDGRWRIKRTSIK,1.19
11,SEEEKRIRDWARLMEEWRRTGDEEDMSRNLDPNARLILIIDGRNILFHGREEVVRVLEELKERLGFKHEEIKDSRVQGDFLHIHGTLRFDGVETEVRVDTIVINGVVRTLKYHFE,0.467
12,SEEEKRMRDVLRRMEEALKTGDWKFLKDLLDPHTRTVINGRDRHGREFVLEVFSRFGADHSDIEDEDFQGNFVILHLEMEIGDKRIRLRIYIEKINGRWIWRHVIFD,2.85
13,SEEEKRMTEDAEHFWRRFLTGDWRTLSRLIDPHVIIHINGVDLHGRHDAHREMEEHAEQFKNIKVHIDHIDVVGDKLHVDVTININGRRFKEEIIIVMFNGRVKELEVRTH,1.61
14,SEEEKRNHEIAKKFIEAFETGDEDFVNHMADPHVKIIVDGVELHGRDQLHHVRKWLEERYPNVRWHLDDMRVQGNKVFLETTLHVGDKTRKSEIILIVINGRLKEIEMRIR,1.92
15,SEEEKRWEDWARLMLNWLRTGDEEKISNLMDPNAKSETLIDGRRVEYHGREEVSRFLFELFEEFGIDHLHVRHYDVFDGVFHAHFRVHVGEKERELEVEFHVVDGRITVDTVKFH,1.5
16,SEEEKSAKIAVDLLLKSQLTGDEQTISELLDPNVRLDVNGREYHGREEYKKWFKHMVERADHMEIRLRHVHFYDGQVHVIGILIIRVNGKELRWEQILVVDKIDGRWLLSEFNFH,2.63
17,SEEEKSSHLSIRLWLEMLITGDEDHLEHLADPNVRIEFEGREFHGRERAMHWMRHVSRHMRIEHIQIRRIHYFDGRLQLEGRIDGNINGRNHRFDSELEVTKIDGRWLLTSERIE,1.24
18,SEEEKTLERIARLHIQLWLTGDEDTLKKLADPDDRLVVDFENHTWEHHGREEVEKHTKHFLRHLRITHVDHHTVQIINGKAHMHTTVDFQVNGKIVKMHTTIIVVEVNGRLKFVRIEVH,1.22
19,SEEEKTSHHLLKLIKHDRETGNEKRMEEYIDPHVKLLINGREFHGWEDALHWIREAGIKHFELKHIDIIGEKLRIDGVINYNGQTHRITFHAIKVDGVWLNKEINHG,0.121
20,SEEEKTVKELVRLILHLLSTGDEEKWLHLADPNMRIEIDFNGKHVELHGREHVHWLLKQFKNARIEIELKHVHVYDGVAEITSILHYHQGDFHWHTESEVMVVVVDGRIKEISFRIR,2.24
21,SEEEKVIWDIFQDWVRAYHTGNEDLIEHLMDPHVRLDINGKEKHGREWVRYHLHELREHIRTKEYEVHHFDVVDGRAHADYEFHVEYNGREFYRRTHIEIQIVNGKIRVINIRFE,1.43
22,SEEEKWAELALEETLRHLKTGDPRVLLELADPNVKLDVNGREYHGREVFLNFIEEFREKFKNITIEVKDRDVVNGRLITHLRLIVNGKEERVHMRSHKVDGQWVLDSVKIE,1.9
23,SEEEKWTEIAFTLWREVVETGDEHDVQEMADPNARYKQGDKEYHGREHLLEFMVKFFRHARVDDDDHKHVRTINGRVELQMRSEVTINGKLLITDVELIIVKVNGRWVVESLILG,1.43
24,SEEEKYARKAIELMKHNYETGDFEKLSRLMDPHVRLHIGDKSHHGMDEFVHWVSQFDHMEMNVHDVRVQGDKIEIIGHLVVRIDGRERRTETYIHLHKFDGQWIVHTIEVR,1.34
25,SEEEKYFEHWLKILLQNMHTGNEENLKRLADPTYRLHIGDKNFIGREMFLDSMRRIDHFDDAKLKSIETYGDYVHAEIDHDGRVDGRKIRVNTILLTLKVDGRWIVHSFKIE,0.827

row,Sequence,protease stability score
1,SEEENEAKSWLEYVIRLLETGDEDSLRKLMDPHVRLIQGDKEFHGRELVTDIISEHIRKVKNVRIRIDDIKFIGEKVYLHGTLEYGDKKHELHLITDKVNGRWLLRSIELR,2.56
2,SEEENILEEMLKIFYESSRTGNEKTMQELFDPHARIEFEGVENIGMELAMRLTTHWRLQTVHIKDVRVIDGQIHMDGEERGVINGQEIRTEVDIISIKIDGRWLFHSKQIN,0.369
3,SEEENISKHLADLMFRAIFTGDWQELSRLLDPNARLRVDGVIHHGRETSVEFLERMFRTLGIDHYRVRHVNVQGEKVDIHSEVEYDGRKIDTKIHLVVVNGKVKSVDVRVD,1.97
4,SEEEQDIKHFLELIERTHHTGDEKLFRDLFDPNVRLHVGDKNMHGREKALERWRLLGYEIKHLRWRDFRIFDGRVTAHGEMEGQVNGQKIKRDVEIVLVKIDGQWFIEEERVR,1.57
5,SEEEQEAIENLHQYIEAIKTGDEDKLRDLFDPNAIIHFDGREIHGRHVFLKKLRHLWLDLKHFHIQHVEPYNGRVEIHGFQHTSVDIDGVRSRRDEHVLIEIIKINGKWKIKRIEWI,1.68
6,SEEEQEFRLILKEHLDKLETGDEDDLHRLMDPNVRIEIGDKEMHGREHATRFFRELRVEHVHLESYELQGEKVNLHGRMIGDINGKKVDRTVHIFLLKVNGRWIIHSWEVV,2.14
7,SEEEQELYRTAKLMLESMTTGNEELNKRLADPNVRIHWNGVENHGWRIFRENLEELRIHLKDWRFRRFDLYNGVALLDIEVQIDIEIGDKRIEYETQTILLLFVVNGRIKSISMRIL,1.07
8,SEEEQFFRLALELFRQVLQTGDEDRLRELVDPNAKHIINGVELHGRSVLEEFLKRYKNLRIHDVEIKDIRVFDGKLELHGIEDGIIGDKRDERRWHLISEKVDGRWIMHEIQID,1.7
9,SEEEQHAKHMSHLISHVLKTGDEERWKELMDPHTRLIVGDKEFHGREALHELKRRVDHMKDVLIHSVEVQGNKADFDVEVHVKVDGRHERLKMRWIVDKVNGRWVQSEIIIH,1.65
10,SEEEQHFRELLHHILENMYTGDWRSLEKNADPHARLFYYQGDKYELYIGMHEWRRLLHHMHERFRNARFQIDEWHVQGDYFKIVESLDYGDKHIDIRVHIQYVNGRLKEMHIHIH,1.24
11,SEEEQHLEKMAEDLLHFILTGDEEAMRKMADPTVRLHLHIGDKEERYHGRRDVVRWFHEWVKKVKGMTIEIKRVKVFDGRIFVDGILEINGVKVRVHLITDVIDGKLTRTEERIE,1.49
12,SEEEQKLRNMAKLTFKDLITGDEEHFEKLADPHTRFNVGNYERHGMRLHLEWYLEWLTRIKGLKLRLELHDVRVVDGRAISDTTLDVHIGDKHIHQDIKLLLVIVDGRIKELEIRFV,1.22
13,SEEEQLALEIARRLVRSILTGDEHEIHRLMDPHVRTNWNGQELVGREEWDRFNHEMRIHELRIREFDVEVFNGRVESRFRTETRMTFDGREVNEETKLIVILDKVDGKWHLRHVEFRIH,0.651
14,SEEEQLIRLALEWELHSEETGDEELVRENADPHVRLEINGVEVIGMELAVKILFELKEDMGIKHIELKSVDTQGDKLNIHSKYHVNGRHIDVIIISKKVNGRWRMKRIIVTIR,2.46
15,SEEEQLVQSAIEITVEALQTGDEHKIREMLDPHVKVRINGQDTHGWEVMEVFMKELGIKHIRVHIEHVNVQGEKVEVKGRVIINFNGRHYEREHWIIIFKIDGRWVNDSIEYI,2.12
16,SEEEQRKEDFLRWFHKALLTGDEEVLLKMADPNVRADINGVDIHGWKEFRQTTHDLRREIRIRDFEVKDEKLVGDKLHVDSSVDGEFDGRRHELKTHLIFLKVDGKWFFKEIRIK,1.34
17,SEEEQRQHEFMILWLEYFRTGNEEELLELIDPNVLLVMDINGRNELNHGRELWHEFMNRFWEKIKNATFIVHDKRVINGRIHMDGRLDINGREYTVHLHIEVINGVTKRFEIRIR,1.68
18,SEEEQSARKVIEDLIRDLVTGDEKSLRRLMDPHVRFDIGDKELIGREEVLEFWRHIRIHDIKLEDVRLIDGRATVEGKLNGEINGVHHRLDEHIFIYKVDGRWVVHEIRII,1.53
19,SEEERATEYVLSMLLHLLRTGDEDALFEMADPRYRFIYGEKEKVGRHVIHEFITHLRIDDFRLRRLEIQGDKIITDGEMYGTINGQHETRRVILIMRKINGRWFLESIEIR,1.7
20,SEEERDAEENIRLYEELWRTGDFDIFKHLADPNVRLHINGRDVHGRENVSRLISEWRDEDIILRHFTVIDGRIEVHSEFHGQVDGQRRNTRIHIHLRKINGQWRLTEVKYE,1.12
21,SEEERDAHEAWRLILETNLTGDEDFSANLMDPDVRITINGRHLHGRELVLRFLNEWRIEFHRVEIKDYEVQGDYVIIIGHMDGILKVDGKEIRFTSDVSIISVKVNGRWLIREIHIK,2.7
22,SEEERDAKEAVHLLLDMIDTGDFERITKYMDPNTRSRVGDKNDHGRHWLRHRRRHAGHDNIHVHLTRVDIFDGVVQINGRLDVDGKEIEVHWFIRKINGRWIVEEVHIQ,0.367
23,SEEERDARIAIEIMLRLLHTGDEESMHQLADPDVRSDVGDKELHGWKLFVDVITEMGIDHVELEHLHTQGDKVHIHVRSFFNGREYLVNLHVRKVDGKWYVEEMKISHH,2.45
24,SEEERDIRHSIEMLFYYFETGDWREWERLADPRARLIIGEKEHHGREELSRSLKELLDRLGVDHYEIKDKRSEIIDGRVNLHVRGHLHVNGRNQHVIVIMVAIKIDGRWLLESLEIRLH,1.3
25,SEEERDLKEEADRFLDHVRTGDEDTLRDLIDPNVKLRVDQGDKDIELHGREEVIKFLVHMRIHHVKLNNFRIQGNKIIHDIRVDGTINGVRRDRREHLILHIVDGKIKIVEIRVE,1.28

# Source: the NTF2 design screens of Basanta et al. (2020)
